According to article PMC5362230, “MCPIP1, alias Regnase-1 binds and cleaves mRNA of C/EBPβ” (PLoS ONE, 2017):

Biological target: the molecule itself
Assay: native gel or EMSA; increasing amounts of purified protein (0-200 pmol) incubated with 2 pmol in vitro transcribed 3'UTR fragments of C/EBPβ mRNA; 25 mM Tris, 150 mM NaCl, 2.5 mM MgCl2, 2.5 mM DTT, 0.5 mM EDTA, 0.025 mM ZnCl2, pH 8.3; on ice 20 min; 0.8% agarose gel in TAE; oligomers read from heavier protein-RNA complexes

B1: Full length human MCPIP1 (D141N) recombinant protein (enzyme, UniProt Q5D1E8 1-599, looked up)
chain: MSGPCGEKPVLEASPTMSLWEFEDSHSRQGTPRPGQELAAEEASALELQMKVDFFRKLGYSSTEIHSVLQKLGVQADTNTVLGELVKHGTATERERQTSPDPCPQLPLVPRGGGTPKAPNLEPPLPEEEKEGSDLRPVVINGSNVAMSHGNKEVFSCRGILLAVNWFLERGHTDITVFVPSWRKEQPRPDVPITDQHILRELEKKKILVFTPSRRVGGKRVVCYDDRFIVKLAYESDGIVVSNDTYRDLQGERQEWKRFIEERLLMYSFVNDKFMPPDDPLGRHGPSLDNFLRKKPLTLEHRKQPCPYGRKCTYGIKCRFFHPERPSCPQRSVADELRANALLSPPRAPSKDKNGRRPSPSSQSSSLLTESEQCSLDGKKLGAQASPGSRQEGLTQTYAPSGRSLAPSGGSGSSFGPTDWLPQTLDSLPYVSQDCLDSGIGSLESQMSELWGVRGGGPGEPGPPRAPYTGYSPYGSELPATAAFSAFGRAMGAGHFSVPADYPPAPPAFPPREYWSEPYPLPPPTSVLQEPPVQSPGAGRSPWGRAGSLAKEQASVYTKLCGVFPPHLVEAVMGRFPQLLDPQQLAAEILSYKSQHPSE
notes: Monocyte chemoattractant protein-1-induced protein 1 (MCPIP1, Regnase-1), human, full length; point mutation D141N in the PIN domain abolishes RNase activity; also called Regnase-1 D141N; source: recombinant, purified
B1: binds.
